Reference: patent US9198909B1, “Materials and methods for inhibiting mamalian S-nitrosoglutathione reductase” (Indiana University Research and Technology Corporation, priority 2007, dated 2015)

Substrate: CCCCCCCCO
Experiment: GSNOR substrate kinetics with octanol
Assay type: biochemical, human
Settings: other: octanol as GSNOR substrate; pH 10.0
Procedure: GSNOR is an alcohol dehydrogenases and like other members of ADH family, is capable of oxidizing and reducing primary alcohols and aldehydes with the help of a molecule of NAD(H). Octanol was chosen as the substrate in the initial screening assay as it is bulky like GSNO, but has 200-fold higher KM value (1 mM) and a kcat value (200 min-1) that is more than 2 order of magnitude lower than that of GSNO. This allows the initial velocity conditions to prevail for a period up to 10 min (data not shown) and it enables conducting a large number of concurrent assays in a384 well plate format. The pH of the assay was adjusted to pH 10 in order to get significant rate of oxidation of octanol in the absence of compounds. The screening for GSNOR inhibitors was performed in the presence of saturating concentration of NAD^+ and an un-saturating concentration of octanol thereby increase the probability of identifying compounds that bind, only or primarily in the GSNO binding site of GSNOR. This was deemed desirable as there are many dehydrogenases inside the cells and compounds binding in the coenzyme binding site are more likely to be nonspecific inhibitors of GSNOR, than compounds that bind primarily to the form of GSNOR that binds GSNO.

B1: GSNOR (Homo sapiens) (protein)
chain: MANEVIKCKAAVAWEAGKPLSIEEIEVAPPKAHEVRIKIIATAVCHTDAYTLSGADPEGCFPVILGHEGAGIVESVGEGVTKLKAGDTVIPLYIPQCGECKFCLNPKTNLCQKIRVTQGKGLMPDGTSRFTCKGKTILHYMGTSTFSEYTVVADISVAKIDPLAPLDKVCLLGCGISTGYGAAVNTAKLEPGSVCAVFGLGGVGLAVIMGCKVAGASRIIGVDINKDKFARAKEFGATECINPQDFSKPIQEVLIEMTDGGVDYSFECIGNVKVMRAALEACHKGWGVSVVVGVAASGEEIATRPFQLVTGRTWKGTAFGGWKSVESVPKLVSEYMSKKIKVDEFVTHNLSFDEINKAFELMHSGKSIRTVVKI
Km: 1 mM
kcat: 200 min⁻¹
